Data: US20090226960A1

How the values were obtained:
LFA-1 on Jurkat T cells = LFA-1 on Jurkat T cells (UniProt P20701); experiment: cell-based or functional assay
CD28 on Jurkat T cells = CD28 on Jurkat T cells (UniProt P10747); experiment: cell-based or functional assay

LFA-1 on Jurkat T cells, sequence (P20701 26-1170 limits assumed, chain 1 of 2): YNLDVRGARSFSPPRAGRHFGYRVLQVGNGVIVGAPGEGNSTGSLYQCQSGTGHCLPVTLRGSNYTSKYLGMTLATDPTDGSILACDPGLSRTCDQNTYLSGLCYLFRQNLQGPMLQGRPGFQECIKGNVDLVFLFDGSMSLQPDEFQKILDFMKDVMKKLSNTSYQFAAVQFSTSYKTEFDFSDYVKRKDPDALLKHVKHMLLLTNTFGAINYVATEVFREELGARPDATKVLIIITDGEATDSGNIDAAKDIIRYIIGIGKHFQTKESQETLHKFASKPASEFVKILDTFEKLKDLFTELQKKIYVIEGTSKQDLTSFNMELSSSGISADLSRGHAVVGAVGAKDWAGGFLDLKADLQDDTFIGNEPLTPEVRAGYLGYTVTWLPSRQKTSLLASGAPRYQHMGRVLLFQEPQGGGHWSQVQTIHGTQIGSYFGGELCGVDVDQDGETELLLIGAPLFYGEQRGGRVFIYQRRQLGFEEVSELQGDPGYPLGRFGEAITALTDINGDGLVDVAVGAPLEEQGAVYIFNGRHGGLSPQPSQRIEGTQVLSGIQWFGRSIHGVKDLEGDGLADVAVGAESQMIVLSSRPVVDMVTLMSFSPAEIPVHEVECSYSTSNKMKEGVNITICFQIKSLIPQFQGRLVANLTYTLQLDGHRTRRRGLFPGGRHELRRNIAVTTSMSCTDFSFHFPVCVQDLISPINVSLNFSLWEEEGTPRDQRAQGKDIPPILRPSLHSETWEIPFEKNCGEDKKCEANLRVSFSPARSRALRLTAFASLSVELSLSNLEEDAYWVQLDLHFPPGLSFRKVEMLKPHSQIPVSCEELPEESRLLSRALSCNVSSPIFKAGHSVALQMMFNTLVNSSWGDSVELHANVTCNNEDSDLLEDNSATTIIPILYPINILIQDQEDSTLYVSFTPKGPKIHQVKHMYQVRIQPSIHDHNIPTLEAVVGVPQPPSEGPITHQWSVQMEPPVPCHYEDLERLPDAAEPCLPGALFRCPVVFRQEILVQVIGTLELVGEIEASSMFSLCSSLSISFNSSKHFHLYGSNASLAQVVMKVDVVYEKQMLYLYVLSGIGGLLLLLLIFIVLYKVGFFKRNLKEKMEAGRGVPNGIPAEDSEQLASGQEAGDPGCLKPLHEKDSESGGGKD
LFA-1 on Jurkat T cells, sequence (P05107 23-769 limits assumed, chain 2 of 2, further chain): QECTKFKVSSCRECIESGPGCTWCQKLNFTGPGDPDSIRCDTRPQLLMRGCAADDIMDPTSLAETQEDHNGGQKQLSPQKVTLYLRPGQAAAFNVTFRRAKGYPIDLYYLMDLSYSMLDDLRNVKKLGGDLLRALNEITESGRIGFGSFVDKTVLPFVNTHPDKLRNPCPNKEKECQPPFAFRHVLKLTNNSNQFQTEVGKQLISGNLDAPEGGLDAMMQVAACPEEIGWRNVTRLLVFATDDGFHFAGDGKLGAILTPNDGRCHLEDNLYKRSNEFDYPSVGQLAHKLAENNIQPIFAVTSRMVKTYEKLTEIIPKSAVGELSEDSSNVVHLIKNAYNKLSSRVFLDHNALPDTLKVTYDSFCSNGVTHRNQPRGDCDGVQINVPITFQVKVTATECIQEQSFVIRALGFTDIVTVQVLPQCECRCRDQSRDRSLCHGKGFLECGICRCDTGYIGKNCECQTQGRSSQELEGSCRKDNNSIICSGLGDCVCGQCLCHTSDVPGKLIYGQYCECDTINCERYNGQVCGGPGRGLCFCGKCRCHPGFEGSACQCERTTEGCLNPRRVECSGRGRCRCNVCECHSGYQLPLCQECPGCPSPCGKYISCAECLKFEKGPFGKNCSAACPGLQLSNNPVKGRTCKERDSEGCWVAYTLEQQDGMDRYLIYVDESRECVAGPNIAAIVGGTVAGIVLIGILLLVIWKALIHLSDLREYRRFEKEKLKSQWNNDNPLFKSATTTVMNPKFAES

Jurkat T cell adhesion to MembraneChip (fold against the control) (LFA-1 on Jurkat T cells)	Jurkat T cell adhesion to MembraneChip (fold against the control) (CD28 on Jurkat T cells)	Substance
3	–	GPI-tethered extracellular domain of human ICAM-1 expressed from pYBS101 (from UniProt P05362 28-480) (ligand)
–	4	GPI-tethered extracellular domain of human B7-1 expressed from pYBS101 (from UniProt P33681 35-242) (ligand)
